Here are results for 2 molecules from EP0621339B1 (TAKARA SHUZO CO. LTD., dated 2001).

Assay in all cases: cell-based or functional assay
For experiment [1], the target named is HA molecule (haemagglutinin) of A/Kitakyushu/159/93 (H3N2) (influenza A virus, H3N2 subtype, strain A/Kitakyushu/159/93).
Experiment [2] concerns the target HA molecule (haemagglutinin) of A/Kumamoto/1/65 (H2N2) (influenza A virus, H2N2 subtype, strain A/Kumamoto/1/65).
For experiment [3], the target named is HA molecule (haemagglutinin) of A1/FM/1/47 (H1N1) (influenza A virus, H1N1 subtype, strain A1/FM/1/47).
Experiment [4] concerns the target HA molecule (haemagglutinin) of A2/Aichi/2/68 (H3N2) (influenza A virus, H3N2 subtype, strain A2/Aichi/2/68).
For experiment [5], the target named is HA molecule (haemagglutinin) of A/Fukuoka/C29/85 (H3N2) (influenza A virus, H3N2 subtype, strain A/Fukuoka/C29/85).
The target of experiment [6] is HA molecule (haemagglutinin) of A/Ibaraki/1/90 (H3N2) (influenza A virus, H3N2 subtype, strain A/Ibaraki/1/90).
Experiment [7] addresses HA molecule (haemagglutinin) of A/Osaka/930/88 (H1N1) (influenza A virus, H1N1 subtype, strain A/Osaka/930/88).
The target of experiment [8] is HA molecule (haemagglutinin) of A/Adachi/2/57 (H2N2) (influenza A virus, H2N2 subtype, strain A/Adachi/2/57).
The target of experiment [9] is HA molecule (haemagglutinin) of influenza B virus B/Nagasaki/1/87 (influenza B virus, strain B/Nagasaki/1/87).
The target in experiment [10] is HA molecule (haemagglutinin) of A/Yamagata/120/86 (H1N1) (influenza A virus, H1N1 subtype, strain A/Yamagata/120/86).
In experiment [11] the target is HA molecule (haemagglutinin) of A/Kaizuka/2/65 (H2N2) (influenza A virus, H2N2 subtype, strain A/Kaizuka/2/65).
The target of experiment [12] is HA molecule (haemagglutinin) of A/Izumi/5/65 (H2N2) (influenza A virus, H2N2 subtype, strain A/Izumi/5/65).
The target in experiment [13] is HA molecule (haemagglutinin) of A/Suita/1/90 (H3N2) (influenza A virus, H3N2 subtype, strain A/Suita/1/90).
The target in experiment [14] is HA molecule (haemagglutinin) of A/Bangkok/10/83 (H1N1) (influenza A virus, H1N1 subtype, strain A/Bangkok/10/83).
In experiment [15] the target is HA molecule (haemagglutinin) of A/Sichuan/2/87 (H3N2) (influenza A virus, H3N2 subtype, strain A/Sichuan/2/87).
The target in experiment [16] is HA molecule (haemagglutinin) of A/PR/8/34 (H1N1) (influenza A virus, H1N1 subtype, strain …, UniProt P03452 18-565).
HA molecule (haemagglutinin) of A/PR/8/34 (H1N1), sequence (P03452 18-565): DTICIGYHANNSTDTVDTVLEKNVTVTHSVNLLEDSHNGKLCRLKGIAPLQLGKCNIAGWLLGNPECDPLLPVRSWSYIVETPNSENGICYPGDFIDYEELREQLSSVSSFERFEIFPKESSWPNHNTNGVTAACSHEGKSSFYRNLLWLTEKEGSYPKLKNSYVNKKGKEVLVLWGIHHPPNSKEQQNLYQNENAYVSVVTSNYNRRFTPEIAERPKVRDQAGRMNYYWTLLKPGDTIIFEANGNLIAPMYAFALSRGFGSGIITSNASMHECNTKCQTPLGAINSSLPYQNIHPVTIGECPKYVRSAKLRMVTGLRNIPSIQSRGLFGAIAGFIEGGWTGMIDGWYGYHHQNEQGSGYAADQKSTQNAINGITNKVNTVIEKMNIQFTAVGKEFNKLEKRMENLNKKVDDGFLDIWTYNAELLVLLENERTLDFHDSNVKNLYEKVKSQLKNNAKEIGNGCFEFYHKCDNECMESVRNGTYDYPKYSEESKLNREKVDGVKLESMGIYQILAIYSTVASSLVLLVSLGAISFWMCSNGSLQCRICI

monoclonal antibody C179: the HI (hemagglutination inhibition titer) (fold dilution of the ascites fluid) in experiment [1], in [2], in experiment [3], in experiment [4], in experiment [5] and in experiment [6] was < 32 in each case. The HI (hemagglutination inhibition titer) (fold dilution of the ascites fluid) in [7], in [8], in experiment [9], in experiment [10], in experiment [11] and in [12] was < 32 in each case. The HI (hemagglutination inhibition titer) (fold dilution of the ascites fluid) in experiment [13], in experiment [14] and in experiment [15] was < 32 in each case.

B1: monoclonal antibody C179 (antibody)
chain 1: EVKLVESGGGLVQPGGSLRLSCGTSGFTLTDDYMTWVRQPPGKALEWLGFIRDRANGYTTEYSASVKGRFTISRDNSQSIVYLQMNTLRVEDSATYYCARPKGYFPYAMDYWGQGT
chain 2: DIQMTQSPASQSASLGESVTITCLASQTIGTWLAWYQQKPGKSPQLLIYAATSLADGVPSRFSGSGSGTKFSFKISSLQAEDFVSYYCQQLYSTPW
As for B1, the “HI (hemagglutination inhibition titer)” value in experiment [16] was < 32 fold dilution of the ascites fluid.
